Results from US20050201975A1 (published 2005).

Columns and labels:
GAL4AD protein = molecular target: T1, GAL4AD protein (UniProt P04386 768-881); assay: yeast two-hybrid bait specificity check in AH109pLOR67
T1 construct: domain: GAL4AD
T1 sequence (looked up): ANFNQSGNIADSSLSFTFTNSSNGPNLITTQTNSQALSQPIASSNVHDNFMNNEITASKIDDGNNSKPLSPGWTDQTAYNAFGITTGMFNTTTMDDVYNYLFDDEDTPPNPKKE

GAL4BD alone = molecular target: T2, GAL4BD alone (UniProt P04386 1-147); assay: yeast two-hybrid (HIS3, ADE2, LacZ reporters) in AH109
T2 construct: domain: GAL4BD; Three empty GAL4BD expression constructs were used as controls; also called pBD-GAL4cam; pBRIDGE
Source text: AH109pLOR67 and AH109 transformed with GAL4BD expression constructs pBD-GAL4cam (Stratagene), pBRIDGE (Clontech) and pLOR32 were used to assess whether the GAL4AD fusion proteins encoded by plasmids 8-2 and 8-7 interacted in a repeatable and specific manner with the Notch1(₁₇₆₂₋₁₈₂₉) domain of the GAL4BDN1(₁₇₆₂₋₁₈₂₉) fusion protein.
These yeast stains along with AH109pLOR67 were then transformed with either 8-2 (CBF 1 fragment) or 8-7 and plated on —WL, —WLH, —WLHA, —WLHAXαGAL plates. An alternative to XaGAL was also employed to assess LacZ expression. Yeast colonies grown on —WLHA plates, were transferred to filter paper by placing the appropriately sized piece of 3 mm Whatman paper over the screen plate and pressing down firmly over the whole surface of the plate. The orientation of the paper was then marked and the paper lifted with a jerking action, lifting the colonies from the agar. The yeast colonies were permeabilised by placing the filter papers in liquid nitrogen, and then allowing them to thaw. This cycle was repeated three times in total. 1.8 ml Z buffer containing X-gal was added to each filter paper, the papers were then monitored for the next 6 hours for the production of blue colour.

Binder	binding result (GAL4AD protein)	binding result (GAL4BD alone)
GAL4BD-N1 fragment (1762-1829) fusion protein (other, Expressed in yeast strain AH109 from pLOR67 (yeast two-hybrid bait); Notch1 numbering per AAG33848; also called bait protein) MKLLSSIEQACDICRLKKLKCSKEKPKCAKCLKNNWECRYSPKTKRSPLTRAHLTEVESRLERLEQLFLLIFPREDLDMILKMDSLQDIKALLTGLFVQDNVNKDAVTDRLASVETDMPLTLRQHRISATSSSEESSNKGQRQLTVSPEFRRQHGQLWFPEGFKVSEASKKKRREPLGEDSVGLKPLKNASDGALMDDNQNEWGDEDLETKKFRFEDPSTCSQANSGRISYDL	no binding	–
GAL4AD fusion protein encoded by plasmid 8-7 (splice variant of the human homologue of mouse C2PA) (other, not shown: small tags and cut ends, Prey from a human spleen cDNA library (Clontech); also called colony 8-7) GRATQGAHARLTGPVRAPAAGGELGFHGAAAEAGPAAMNRFNGLCKVCSERRYRQITIPRGKDGFGFTICCDSPVRVQAVDSGGPAERAGLQQLDTVLQLNERPVEHWKCVELAHEIRSCPSEIILLVWRMVPQVKPGPDGGVLRRASCKSTHDLQSPPNKREKNCTHGVQARPEQRHSCHLVCDSSDGLLLGGWERYTEVAKRGGQHTLPALSRATAPTDPNYIILAPLNPGSQLLRPVYQEDTIPEESGSPSKGKSYTGLGKKSRLMKTVQTMKGHGNYQNCPVVRPHATHSSYGTYVTLAPKVLVFPVFVQPLDLCNPARTLLLSEELLLYEGRNKAAEVTLFAYSDLLLFTKEDEPGRCDVLRNPLYLQSVKLQEGSSEDLKFCVLYLAEKAECLFTLEAHSQEQKKRVCWCLSENIAKQQQLAASPPDSKKLHPFGSLQQEMGPVNSTNATQDRSFTSPGQTLIG	–	no binding
